# Measured values: publication PMC5940873, “NADH/NADPH bi-cofactor-utilizing and thermoactive ketol-acid reductoisomerase from Sulfolobus acidocaldarius” (Scientific Reports, 2018)
# B1: Sac-KARI (Sulfolobus acidocaldarius DSM 639) (protein)
# chain: MAKIYTDKDVSLDVIKEKRVAVLGYGSQGRAWALNLRDSGIKVSVGLEREGNSWKQAENDGFKPLRTEEAVRNSDIIIFLLPDMIQRTVYLERVKPYLKEGMDLVFAHGFNIHYRLIEPPSNVDVYMIAPKAPGPIVREYFAKGGGVPALVATYQDHSGKALQKALAVAKAIGATRAGVIETTFKEETETDLFGEQVDLVGGVMQLMRYAFQTLVEAGYQPEVAYFETINEMKLIVDLVYEKGFSGMLTAVSDTAKYGGMTVGKMVIDESVKERMKKALDNIRSGKFAEKWVEEYGKGANTIKEGMKEVDNSTEEKVGRSLRDIILRGKPKS
# notes: pET-21a NdeI/XhoI, His-tag retained; E. coli BL21(DE3); heat step, Ni-NTA, gel filtration; homodimer ~70 kDa (theoretical ~74 kDa); beta2-alphaB loop LEREGNS; R49, S53, D191, E195, E227, E231
# What was measured:
# Assay in all cases: purified protein
# Type in all cases: biochemical, Sulfolobus acidocaldarius
# purified protein [1] = substrate: NC(=O)C1=CN([C@@H]2O[C@H](COP(=O)(O)OP(=O)(O)OC[C@H]3O[C@@H](n4cnc5c(N)ncnc54)[C@H](OP(=O)(O)O)[C@@H]3O)[C@@H](O)[C@H]2O)C=CC1; details: 5 mM 2S-AL (saturating), 10 mM MgSO4, 100 mM phosphate pH 8.0, 25 °C, varied: cofactor
# purified protein [2] = substrate: NC(=O)C1=CN([C@@H]2O[C@H](COP(=O)(O)OP(=O)(O)OC[C@H]3O[C@@H](n4cnc5c(N)ncnc54)[C@H](O)[C@@H]3O)[C@@H](O)[C@H]2O)C=CC1; details: 5 mM 2S-AL (saturating), 10 mM MgSO4, 100 mM phosphate pH 8.0, 25 °C, varied: cofactor
# purified protein [3] = substrate: CC(=O)[C@](C)(O)C(=O)O; details: 0.22 mM NADPH, 10 mM MgSO4, 100 mM phosphate pH 8.0, 25 °C, racemic 2-acetolactate used, concentration counted as the S enantiomer
protein,measurement,setting,value
B1,Km,purified protein [1],0.4 ± 0.2 µM
same,kcat,purified protein [1],0.064 ± 0.001 s⁻¹
same,kcat/Km,purified protein [1],186000 ± 80500 M⁻¹ s⁻¹
same,Km,purified protein [2],6.0 ± 0.8 µM
same,kcat,purified protein [2],0.056 ± 0.001 s⁻¹
same,kcat/Km,purified protein [2],9500 ± 1300 M⁻¹ s⁻¹
same,Km,purified protein [3],140 ± 6 µM
same,kcat,purified protein [3],0.068 ± 0.001 s⁻¹
same,kcat/Km,purified protein [3],490 ± 20 M⁻¹ s⁻¹
